The target in data set [1] is T1, Estrogen receptor alpha (ERα) (human, UniProt P03372 1-595). Briefly: ITC; ITC: 10 mM Tris-HCl pH 8.0, 25 °C, 1 µM ERα in cell, 10 µM RNA in syringe; ELISA: 100 nM biotinylated ERaptR4, 2 h; western blot: 1 µM ERaptR4. As to conditions: chain copies: 2; hairpin.
In data set [2] the target is T1, Estrogen receptor alpha (ERα). The data set is described as above. Particulars: chain copies: 2; hairpin. The source holds these as a separate data set.

T1 sequence (P03372 whole entry): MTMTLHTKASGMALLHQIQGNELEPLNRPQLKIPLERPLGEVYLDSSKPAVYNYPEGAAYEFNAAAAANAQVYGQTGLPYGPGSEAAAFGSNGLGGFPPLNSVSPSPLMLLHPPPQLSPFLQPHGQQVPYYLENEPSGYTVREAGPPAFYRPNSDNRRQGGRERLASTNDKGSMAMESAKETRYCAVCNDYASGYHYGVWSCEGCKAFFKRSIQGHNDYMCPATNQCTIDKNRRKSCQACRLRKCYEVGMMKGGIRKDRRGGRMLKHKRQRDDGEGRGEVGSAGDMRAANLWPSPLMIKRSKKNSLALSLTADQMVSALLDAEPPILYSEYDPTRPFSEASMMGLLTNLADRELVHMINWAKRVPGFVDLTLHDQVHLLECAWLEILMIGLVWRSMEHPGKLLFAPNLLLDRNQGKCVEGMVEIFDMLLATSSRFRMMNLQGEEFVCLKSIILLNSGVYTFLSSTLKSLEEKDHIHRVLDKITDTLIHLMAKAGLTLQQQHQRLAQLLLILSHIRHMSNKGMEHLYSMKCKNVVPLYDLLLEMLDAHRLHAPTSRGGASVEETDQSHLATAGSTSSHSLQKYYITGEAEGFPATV

Turning to AGGGUCAGGGCCACCUG (structured_RNA) [ERaptR3], the Ka in data set [1] was 5.24e+07 M⁻¹. GGGGUCAGCUGUGCCCCG (structured_RNA) [ERaptR18]: the Ka in data set [1] worked out at 9.91e+07 M⁻¹.

Molecule CCAGUCAGUCUGAUUAU (structured_RNA) [ERaptR14] came in with a Ka in data set [1] of 7.42e+07 M⁻¹. UGGUCAGGCUGGUCUCA (structured_RNA) [ERaptR9] returned a Ka in data set [1] of 9.46e+07 M⁻¹.

Regarding UUGGUCAGGCUGAUCUC (structured_RNA) [ERaptR16], in data set [1], the Ka came out at 9.4e+07 M⁻¹.

In the case of GAGGUCACUGAGACCAU (structured_RNA) [ERaptR1], the Ka in data set [1] stood at 9.2e+07 M⁻¹. On to CGGGUCAGGGUGACCUC (structured_RNA) [ERaptR8], for which the Ka in data set [1] came to 8.88e+07 M⁻¹. In data set [1], GCGGUCACCGUCACCUC (structured_RNA) [ERaptR15] yielded a Ka of 9.25e+07 M⁻¹.

For CAGGUCAAGGCGAUCUU (structured_RNA) [ERaptR13], in data set [1], the Ka amounted to 8.96e+07 M⁻¹. Regarding GGGGUCAAGGUCACCGC (structured_RNA) [ERaptR12], in data set [1], the Ka came out at 8.2e+07 M⁻¹. In data set [1], CGGGUCACGAUGCCCUA (structured_RNA) [ERaptR7] gave a Ka of 4.82e+07 M⁻¹. Take GGGGUCAAGGUGACCCC (structured_RNA) [ERaptR4]: the Ka in data set [2] came out at 1.02e+08 M⁻¹. Consider UAGGUCAGUAAGACCUC (structured_RNA) [ERaptR6], for which the Ka in data set [1] amounted to 9.46e+07 M⁻¹. In data set [1], UUGGUCAAGCUGCCCUC (structured_RNA) [ERaptR17] returned a Ka of 1.26e+08 M⁻¹. In data set [1], AGGGUCAUGGUGACCCU (structured_RNA) [ERaptR11] had a Ka of 8.02e+07 M⁻¹. Same read-out and setting: the result for AAGGUCACGGUGGCCAC (structured_RNA) [ERaptR5] reads 6.82e+07 M⁻¹; that for CCAGGUCACAGUGACCUG (structured_RNA) [ERaptR2], 7.6e+07 M⁻¹.

These data come from publication PMC4761961, “In silico selection of an aptamer to estrogen receptor alpha using computational docking employing estrogen response elements as aptamer-alike molecules”.
